Columns and labels:
[1] = biological target: TGF-β1 (UniProt P01137); experiment: SPR (Biacore), TGF-β1 on chip, CHO-produced sRII-9Gly (lot 2) 1.2-90 nM injected, 1:1 model
[2] = biological target: T1, TGF-β3 (UniProt P10600); experiment: SPR (Biacore), TGF-β3 on chip, HEK 293-produced sRII-9Gly 1.2-90 nM injected, 1:1 model
T1 sequence (looked up): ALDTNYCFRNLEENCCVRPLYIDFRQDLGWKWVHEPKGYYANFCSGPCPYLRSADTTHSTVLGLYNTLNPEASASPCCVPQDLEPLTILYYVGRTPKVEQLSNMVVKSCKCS

[3] = biological target: T1, TGF-β3; experiment: SPR (Biacore), TGF-β3 on chip, CHO-produced sRII-9Gly (lot 2) 1.2-90 nM injected, 1:1 model
[4] = biological target: T1, TGF-β3; experiment: SPR (Biacore), TGF-β3 on chip, CHO-produced sRII-9Gly (lot 1) 1.2-90 nM injected, 1:1 model
[5] = biological target: TGF-β1 (UniProt P01137); experiment: SPR (Biacore), TGF-β1 on chip, HEK 293-produced sRII-9Gly 1.2-90 nM injected, 1:1 model
[6] = biological target: TGF-β1 (UniProt P01137); experiment: SPR (Biacore), TGF-β1 on chip, CHO-produced sRII-9Gly (lot 1) 1.2-90 nM injected, 1:1 model
[7] = biological target: TGF-β1 (UniProt P01137); experiment: cell-based or functional assay
[8] = biological target: T1, TGF-β3; experiment: cell-based or functional assay

Sequence of UniProt P01137 (P01137 279-390 limits assumed): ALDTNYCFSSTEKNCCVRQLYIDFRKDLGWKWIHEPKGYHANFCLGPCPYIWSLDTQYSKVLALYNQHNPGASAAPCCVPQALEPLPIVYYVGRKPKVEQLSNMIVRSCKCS

Kd [1]: 9800 pM
koff [1]: 0.0011 s⁻¹
Kd [2]: 2100 pM
koff [2]: 0.00034 s⁻¹
Kd [3]: 6800 pM
koff [3]: 0.00085 s⁻¹
Kd [4]: 5000 pM
koff [4]: 0.00131 s⁻¹
Kd [5]: 8200 pM
koff [5]: 0.0011 s⁻¹
Kd [6]: 6300 pM
koff [6]: 0.00117 s⁻¹
IC50 (nM), A549/IL-11 cell bioassay, CHO-produced sRII-9Gly Lot 9 [7]: 0.02 nM
IC50 (nM), A549/IL-11 cell bioassay, CHO-produced sRII-9Gly Lot 10 [7]: 0.018 nM
IC50 (nM), A549/IL-11 cell bioassay, CHO-produced sRII-9Gly Lot 11 [7]: 0.014 nM
IC50 (nM), A549/IL-11 cell bioassay, CHO-produced sRII-9Gly Lot 12 [7]: 0.015 nM
IC50 (nM), A549/IL-11 cell bioassay, CHO-produced sRII-9Gly Lot 13 [7]: 0.016 nM
IC50 (nM), A549/IL-11 cell bioassay, sRII-9Gly Lot 4 [7]: 0.039 nM
IC50 (nM), A549/IL-11 cell bioassay, sRII-9Gly Lot 5 [7]: 0.053 nM
IC50 (nM), A549/IL-11 cell bioassay, sRII-9Gly Lot 6 (pH 7.0) [7]: 0.054 nM
IC50 (nM), A549/IL-11 cell bioassay, sRII-9Gly Lot 7 (pH 8.5) [7]: 0.062 nM
IC50 (nM), A549/IL-11 cell bioassay, sRII-9Gly Lot 8 (pH 9.0) [7]: 0.047 nM
IC50 (ng/ml), A549/IL-11 cell bioassay, sRII-9Gly Lot 4 [7]: 1.34 ng/mL
IC50 (ng/ml), A549/IL-11 cell bioassay, sRII-9Gly Lot 5 [7]: 1.8 ng/mL
IC50 (ng/ml), A549/IL-11 cell bioassay, sRII-9Gly Lot 6 (pH 7.0) [7]: 1.82 ng/ml
IC50 (ng/ml), A549/IL-11 cell bioassay, sRII-9Gly Lot 7 (pH 8.5) [7]: 2.12 ng/ml
IC50 (ng/ml), A549/IL-11 cell bioassay, sRII-9Gly Lot 8 (pH 9.0) [7]: 1.59 ng/ml
IC50 (nM), A549/IL-11 cell bioassay, CHO-produced sRII-9Gly Lot 9 [8]: 0.035 nM
IC50 (nM), A549/IL-11 cell bioassay, CHO-produced sRII-9Gly Lot 10 [8]: 0.29 nM
IC50 (nM), A549/IL-11 cell bioassay, CHO-produced sRII-9Gly Lot 11 [8]: 0.008 nM
IC50 (nM), A549/IL-11 cell bioassay, CHO-produced sRII-9Gly Lot 12 [8]: 0.07 nM
IC50 (nM), A549/IL-11 cell bioassay, CHO-produced sRII-9Gly Lot 13 [8]: 0.018 nM
B1: sRII-9Gly fusion protein (receptor)
chain: IPPHVQKSVNNDMIVTDNNGAVKFPQLCKFCDVRFSTCDNQKSCMSNCSITSICEKPQEVCVAVWRKNDENITLETVCHDPKLPYHDFILEDAASPKCIMKEKKKPGETFFMCSCSSDECNDNIIFSEEYNTSNPDLHMGGGGGGGGGIDIPPHVQKSVNNDMIVTDNNGAVKFPQLCKFCDVRFSTCDNQKSCMSNCSITSICEKPQEVCVAVWRKNDENITLETVCHDPKLPYHDFILEDAASPKCIMKEKKKPGETFFMCSCSSDECNDNIIFSEEYNTSNPDL
